We go through six molecules from patent US20260098270, “MULTIVALENT TRIDENT […] FOR MOLECULAR RECOGNITION, METHODS OF MAKING AND USES […]” (MCMASTER UNIVERSITY, published 2026).

As a reminder, the Kd is the constant that tells how readily two partners part at equilibrium. Higher therefore signals lower affinity.

One series has as its target VEGF165 (UniProt P15692-4 P15692-4:27-191). In words: filter. The note with it: chain copies: 2 (stated dimeric).
Series [1] addresses SARS-CoV-2 spike S1 subunit (SARS-CoV-2, UniProt P0DTC2 P0DTC2:14-685). In words: filter.
Series [2] addresses T1, Bovine serum albumin (BSA) (Bos taurus, UniProt P02769 P02769:25-607). In words: filter; dot blot, no binding. Conditions: tags: Sigma-Aldrich A7906; label: 5'-32P.
In series [3] the target is T1, Bovine serum albumin (BSA). In words: ELONA. The note with it: tags: Sigma-Aldrich A7906.
The target of series [4] is Spike RBD of seasonal coronavirus OC43 (Human coronavirus OC43, UniProt P36334 P36334:333-607). In words: ELONA. The note with it: tags: from Dr. Matthew Miller's lab, McMaster University.
In the next series the target is T2, Amylase (UniProt P0DUB6 P0DUB6:16-511).
T2 sequence: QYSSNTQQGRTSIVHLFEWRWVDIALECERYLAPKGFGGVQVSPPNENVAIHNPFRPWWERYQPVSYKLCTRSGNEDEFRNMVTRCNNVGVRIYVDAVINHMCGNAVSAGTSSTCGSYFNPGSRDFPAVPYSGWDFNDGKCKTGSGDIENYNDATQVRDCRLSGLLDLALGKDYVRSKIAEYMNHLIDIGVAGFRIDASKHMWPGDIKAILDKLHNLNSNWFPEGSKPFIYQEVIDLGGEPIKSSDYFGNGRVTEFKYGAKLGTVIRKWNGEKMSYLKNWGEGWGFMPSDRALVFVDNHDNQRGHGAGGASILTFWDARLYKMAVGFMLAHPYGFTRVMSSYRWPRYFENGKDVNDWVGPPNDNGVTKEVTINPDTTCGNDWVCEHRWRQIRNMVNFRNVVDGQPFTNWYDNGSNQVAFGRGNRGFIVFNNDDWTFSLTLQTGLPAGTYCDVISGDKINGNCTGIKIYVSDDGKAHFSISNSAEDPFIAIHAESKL
In words: ELONA. Conditions: tags: Sigma-Aldrich A1031.

Series [5] concerns the target Spike RBD of seasonal coronavirus 229E (Human coronavirus 229E, UniProt P15423 P15423:293-435). In words: ELONA. Conditions: tags: from Dr. Matthew Miller's lab, McMaster University.
A further series addresses SARS-CoV-1 spike protein (SARS-CoV-1, UniProt P59594 P59594:14-1195). In words: ELONA. Conditions: tags: from Dr. Matthew Miller's lab, McMaster University; label: biotin.

T1 sequence (P02769 25-607, one chain of several): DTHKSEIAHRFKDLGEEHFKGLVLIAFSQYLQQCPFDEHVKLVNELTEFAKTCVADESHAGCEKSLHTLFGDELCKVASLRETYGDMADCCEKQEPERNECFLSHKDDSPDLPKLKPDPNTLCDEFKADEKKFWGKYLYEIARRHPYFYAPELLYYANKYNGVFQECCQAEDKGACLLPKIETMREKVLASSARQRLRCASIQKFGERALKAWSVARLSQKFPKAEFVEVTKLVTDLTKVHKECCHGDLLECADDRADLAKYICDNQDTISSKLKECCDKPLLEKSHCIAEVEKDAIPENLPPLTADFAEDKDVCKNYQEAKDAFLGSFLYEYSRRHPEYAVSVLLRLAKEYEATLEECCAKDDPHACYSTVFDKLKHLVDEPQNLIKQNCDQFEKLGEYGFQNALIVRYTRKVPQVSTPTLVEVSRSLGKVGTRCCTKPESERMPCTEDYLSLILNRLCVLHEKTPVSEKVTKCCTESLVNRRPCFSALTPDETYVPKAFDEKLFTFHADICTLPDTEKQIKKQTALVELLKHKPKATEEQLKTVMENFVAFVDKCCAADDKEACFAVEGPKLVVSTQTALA
Chain of VEGF165 (P15692 other isoform, or with tags, fused parts or gaps): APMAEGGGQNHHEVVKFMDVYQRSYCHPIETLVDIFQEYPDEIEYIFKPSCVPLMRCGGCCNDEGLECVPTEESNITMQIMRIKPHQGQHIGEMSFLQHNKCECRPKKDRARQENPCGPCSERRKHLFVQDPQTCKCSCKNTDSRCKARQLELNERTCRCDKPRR
Chain of Spike RBD of seasonal coronavirus OC43 (P36334 333-607, one chain of several): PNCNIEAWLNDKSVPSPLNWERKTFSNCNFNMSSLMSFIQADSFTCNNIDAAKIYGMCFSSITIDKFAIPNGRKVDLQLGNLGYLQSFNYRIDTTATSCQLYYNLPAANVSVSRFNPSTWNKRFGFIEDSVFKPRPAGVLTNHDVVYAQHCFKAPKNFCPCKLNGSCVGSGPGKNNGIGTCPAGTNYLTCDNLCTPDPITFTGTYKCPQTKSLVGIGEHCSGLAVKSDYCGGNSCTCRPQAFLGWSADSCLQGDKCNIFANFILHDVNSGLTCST
Chain of Spike RBD of seasonal coronavirus 229E (P15423 293-435, one chain of several): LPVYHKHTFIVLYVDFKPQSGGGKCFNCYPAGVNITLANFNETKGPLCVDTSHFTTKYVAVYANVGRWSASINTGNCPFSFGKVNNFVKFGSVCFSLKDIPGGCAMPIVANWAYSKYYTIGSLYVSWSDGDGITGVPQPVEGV

GCCCGTCTTCCAGACAAGAGTGCAGGGCTTTTTCTCTCGC (ssDNA, three identical arms joined by Trebler, root TTTTT-Biotin) [Trimeric (trident) H1A] came in with a Kd with VEGF165 of 0.27 nM.

B1: TMSA52T8 (ssDNA)
DNA: CGAAGCATCTCGTGTCACTCCGTAGGGTTTGGCTCCGGGCCTGGCGTCGTTTTTCTCTCGC
modifications: three identical arms joined by Trebler, root TTTTT-Biotin
As to B1, in series [1], the Kd came to 0.21 nM. GCCCGTCTTCCAGACAAGAGTGCAGGGC (ssDNA) [H1A]: binding with VEGF165 was put at a Kd of 21.3 nM. This counts as double-digit nanomolar.

B2: Trimeric (trident) RHA06 (ssDNA)
DNA: GGGTTTGGGTTGGGTTGGGTTTTTGGGTTTGGGTTGGGTTGGGAAAAATTTTTCTCTCGC
modifications: three identical arms (SEQ 12) joined by Trebler, root TTTTT-Biotin
Regarding B2, the binding result in series [2] was “no binding”.

The molecule CGAAGCATCTCGTGTCACTCCGTAGGGTTTGGCTCCGGGCCTGGCGTCG (ssDNA) [MSA52T8] displayed a Kd in series [1] of 6.5 nM.

B3: TMSA52-B (ssDNA)
DNA: TTACGTCAAGGTGTCACTCCGTAGGGTTTGGCTCCGGGCCTGGCGTCGGTCGTCTCTCGCGAAGCATCTCTTTGGCGTGTTTTTTTTTTTTTTT
modifications: three identical arms joined by Trebler, root TTTTT-Biotin
B3: the binding result (in series [3]; in series [4]; with Amylase; in series [5]; in the series with SARS-CoV-1 spike protein) was “no binding” each time.
